According to patent US20110311585A1:

Assays:
Assay in all cases: cell-based or functional assay
[1] = target: HIV-1 envelope glycoprotein gp160, clone 005 from subject 108051, Q655R mutant (HIV-1)
[2] = target: HIV-1 envelope glycoprotein gp160, clone 022 from subject 108060, Q655R mutant (HIV-1)
[3] = target: HIV-1 envelope glycoprotein gp160, clone 005 from subject 108069, Q655R mutant (HIV-1)
[4] = target: HIV-1 envelope glycoprotein gp160, clone 024 from subject 108060, R655Q mutant (HIV-1)

Question: What does the source list for “broadly neutralizing monoclonal antibody 4E10”?
Answer: IC50, pseudovirus neutralization [1]: 1.31 µg/mL; IC50, pseudovirus neutralization [2]: 0.156 µg/mL; fold increase in neutralization sensitivity against wild-type clone 022 [2]: 30 to 35 fold; IC50, pseudovirus neutralization [3]: 0.044 µg/mL; IC50, pseudovirus neutralization [4]: 6.55 µg/mL

Question: For enfuvirtide (peptide), which IC50, pseudovirus neutralization [1] is on record?
Answer: 0.036 µg/mL

Question: And the IC50, pseudovirus neutralization [2]?
Answer: 0.004 µg/mL

Question: And the fold increase in neutralization sensitivity against wild-type clone 022 [2]?
Answer: 17 fold

Question: And the IC50, pseudovirus neutralization [3]?
Answer: 0.011 µg/mL

Question: And the fold increase in neutralization sensitivity against the parental virus [3]?
Answer: > 17 fold

Question: What about the IC50, pseudovirus neutralization [4] of the same substance?
Answer: 0.13 µg/mL

Question: Which results are given for monoclonal antibody 2G12?
Answer: IC50, pseudovirus neutralization [1]: > 20 µg/mL; IC50, pseudovirus neutralization [2]: > 20 µg/mL; IC50, pseudovirus neutralization [3]: > 20 µg/mL; IC50, pseudovirus neutralization [4]: > 20 µg/mL

Question: Which results are given for “broadly neutralizing, CD4 blocking monoclonal antibody (MAb) b12”?
Answer: IC50, pseudovirus neutralization [1]: > 20 µg/mL; IC50, pseudovirus neutralization [2]: > 20 µg/mL; IC50, pseudovirus neutralization [3]: > 20 µg/mL; IC50, pseudovirus neutralization [4]: > 20 µg/mL

Question: With “broadly neutralizing monoclonal antibody 2F5” as the substance, how does the IC50, pseudovirus neutralization [1] read?
Answer: 0.343 µg/mL

Question: And the IC50, pseudovirus neutralization [2]?
Answer: 0.093 µg/mL

Question: And the fold increase in neutralization sensitivity against wild-type clone 022 [2]?
Answer: 30 to 35 fold

Question: What about the IC50, pseudovirus neutralization [3] of the same substance?
Answer: 0.052 µg/mL

Question: And the IC50, pseudovirus neutralization [4]?
Answer: 3.43 µg/mL

Question: How did the IC50, pseudovirus neutralization [1] turn out when “CD4-IgG (from UniProt P01730 26-205) (Fc fusion)” was run?
Answer: 5.21 µg/mL

Question: What about the IC50, pseudovirus neutralization [2] of the same substance?
Answer: 0.161 µg/mL

Question: And the fold increase in neutralization sensitivity against wild-type clone 022 [2]?
Answer: > 125 fold

Question: What about the IC50, pseudovirus neutralization [3] of the same substance?
Answer: 1.08 µg/mL

Question: And the fold increase in neutralization sensitivity against the parental virus [3]?
Answer: > 20 fold

Question: And the IC50, pseudovirus neutralization [4]?
Answer: > 20 µg/mL
